Measurements reported in publication PMC9798703.
Where two headings read alike, the source gives them in different places.

Tests used:
Experiment in all cases: fluorescence anisotropy
ERα DBD-Ext [1] = target: T1, ERα DBD-Ext (Homo sapiens, UniProt P03372)
ERα DBD-Ext [2] = target: T1, ERα DBD-Ext; remark: listed apart in the source
ERα DBD-Ext [3] = target: T1, ERα DBD-Ext; remark: listed apart in the source
ERα DBD-Ext [4] = target: T1, ERα DBD-Ext; remark: listed apart in the source

Binder	binding result (ERα DBD-Ext [2])	Kd (ERα DBD-Ext [3]) [nM]	also measured
AUACAACAUACAACAUACAACAUACAACAUACAAC (ssRNA) [ssRNA (env8)]			Kd (ERα DBD-Ext [1]): ~1100 nM
GREB1 (structured_RNA) RNA: GGGAUGCCGAAGAGUUGAUGUCAAUCUUUUUUUCCUAAGAAAAAAAGUCCGCGAGUAUUCC	binds		
rERE duplex (dsRNA) RNA 1: CAGGUCAGAGUGACCUGAUU RNA 2: AAUCAGGUCACUCUGACCUG		1100	
UCAGGUCACUCUGACCUGGCUUCAGGUCAGAGUGACCUGA (structured_RNA) [rERE loop rescue]			binding result (ERα DBD-Ext [4]): binds
CAGGUCAGAGUGACCUGAUUCGUCAGGUCACUCUGACCUG (structured_RNA) [rERE]		130 ± 20	
GGGAUCUGCCUGCAUCCUGACGCGGUGCCGUCCC (structured_RNA) [TFF1]	binds		
